The source of these data is patent US20030170653A1, “Biological method for the production of tuliposide A and its intermediates” (priority 2001, published 2003).

Common to all, as to format: biochemical
Data set [1] in a line: Coupled assay with purified GABT: reduction of α-methylenesuccinatesemialdehyde, MBL detected by HPLC. As to conditions: coupled with 100 μg GABT, 1 mM α-methylene-γ-aminobutyrate, 0.5 mM NADPH, room temperature, 30 min. The procedure:
(§1) All proteins eluted at around 120 mM immidazole. Purified proteins from pTrcAds and pTrcEtp were assayed with succinatesemialdehyde and NADPH as described above. […] Assays contained 0.5 mM NADPH, 100 mM sodium phosphate (pH 7.0), 1 mg/mL BSA, succinatesemialdehyde and enzyme in 200 μL total. Assays were carried out at various concentrations of succinatesemialdehyde (0.1-30 mM) using 3 μg/mL of each enzyme. Under these conditions, the kinetic parameters for the Arabidopsis dehydrogenase (kcat=1290 min-1, KM=4 mM) and the Tulip dehydrogenase (kcat=1200 min^−1, KM=3 mM) were determined. The ablility of each enzyme to reduce to α-methylenesuccinatesemialdehyde to α-methylene-γ-hydroxybutyrate was assessed in a coupled assay. The GABT protein from E. coli, purified as described above, was used to generate α-methylenesuccinatesemialdehyde from α-methylene-γ-aminobutyrate. This assay was carried out in the presence or absence of the Arabidopsis and Tulip dehydrogenase. […] To this was added either the Arabidopsis or Tulip protein (20 μg/mL and 3 μg/mL) or no additional protein as negative control. Assays were incubated at room temperature for 30 min and the reaction was stopped with 10% HCl. Acidification of the assay also served to partially convert α-methylene-γ-hydroxybutyrate to α-methylene-γ-butyrolactone (MBL). […] Compounds were detected with a Waters 9600 PDA detector. […]

A short description of data set [2]: Kinetic analysis of purified dehydrogenases with succinatesemialdehyde and NADPH. The settings on record: purified enzyme 3 μg/mL, succinatesemialdehyde 0.1-30 mM, 0.5 mM NADPH, pH 7.0. The procedure: Cultures were grown at 37° C. for 5 h and then were transferred to 100 mL of LB liquid media containing ampicillin (100 μg/mL). These were grown overnight at room temperature. The next morning, 50 mL of each culture was transferred to 1 L of LB and grown at room temperature until the OD600 nm reached 0.8. IPTG was added to the cultures to a concentration of 0.4 mM and cultures were grown for an additional 4 h at room temperature. The cultures were then centrifuged at 10,000× g for 15 min, the supernatant was decanted and the resulting pellet was resuspended in 10 mL of breakage buffer (100 mM HEPES, pH 7.2; 10 % glycerol; 1 mM AEBSF; 1 μg/mL leupeptin; and 1 μg/mL pepstatin). Cells were broken by passage two times through a french press and the resulting extract was centrifuged at 16,000× g for 15 min at 4° C. The supernatant was carefully removed and 40 mL of Ni loading buffer (20 mM sodium phosphate, pH 7.5; 10 mM immidazole; 500 mM sodium chloride) was added. Proteins were loaded onto a 5 mL Hitrap chelating column (Pharmacia, Inc.) pre-equilibrated with 100 mM nickel sulfate and washed with 20 mL of loading buffer. Another wash with 50 mL of loading buffer containing 60 mM immidazole was carried out and bound proteins were eluted with a gradient of loading buffer containing immidazole from 60 mM to 1000 mM. All fractions were analyzed by SDS-PAGE.
as §1

Data set [3] in a line: Dehydrogenase assay of protein extracts, oxidation of NADPH or NADH at 340 nm. The settings on record: 1.5 mM succinic semialdehyde; for activity with NADH as electron donator: 0.5 mM NADH; for specific activity: 0.5 mM NADPH, pH 7.2, room temperature, protein extract. The procedure: Plasmids pTrcEtp and pTrcAds were retransformed into TOP10 cells and freshly plated transformants were used in gene expression studies. In addition, the pTrcHis-TOPO/lacZ plasmid (Invitrogen) was also transformed into TOP10 cells to be used as a negative control in expression experiments. Freshly transformed Escherichia coli colonies containing pTrcEtp, pTrcAds or pTrcHis-TOPO/lacZ were inoculated into 2 mL of LB liquid media containing ampicillin (100 μg/mL) and grown at 37° C. for 5 h. These were then transferred to 100 mL of LB liquid media containing ampicillin (100 μg/mL) and cultures were grown overnight at room temperature. The next morning, the cultures were diluted to an OD600 nm of 0.2 and were grown at room temperature until the OD600 nm reached 0.8. IPTG was added to the cultures to a concentration of 0.4 mM and cultures were grown for an additional 3 h at room temperature. The cultures were then centrifuged at 10,000× g for 15 min, the supernatant was decanted and the resulting pellet was resuspended in 2 mL of breakage buffer (100 mM HEPES, pH 7.2; 10 % glycerol; 1 mM AEBSF; 1 μg/mL leupeptin; and 1 μg/mL pepstatin). Cells were broken by passage two times through a french press and the resulting extract was centrifuged at 16,000× g for 15 min at 4° C. The supernatant was carefully removed (soluble protein) and the pellet was resuspended in 1 mL of breakage buffer. An additional 1 mL of breakage buffer containing 12 mM CHAPS was added and after mixing and incubation on ice for 30 min, the mixture was centrifuged at 16,000× g for 15 min at 4° C. The supernatant was carefully removed (CHAPS soluble protein) and the pellet was resuspended in 2 mL of breakage buffer (insoluble protein).
Protein extracts (soluble, CHAPS soluble and insoluble) from TOP10 cells containing pTrcEtp, pTrcAds and pTrcHis-TOPO/lacZ were assayed by measuring the oxidation of NADPH or NADH using the decrease in absorbance at 340 nm (Hearl et al., J. Biol. Chem. 260:16361-16366 (1985)). Assays contained 100 mM potassium phosphate (pH 7.2), 10% glycerol, 1.5 mM succinic semialdehyde, 0.5 mM of either NADPH or NADH and from 10 μg-400 μg of enzyme extract in a total volume of 1 mL. Assays were initiated by addition of succinic semialdehyde and were measured at room temperature. Protein concentrations of each extract were determined using the BioRad protein assay (Biorad). Protein extracts were also analyzed by SDS-PAGE.

B1: GHBD1: γ-hydroxybutyrate dehydrogenase homolog from tulip pistil (SEQ ID NO: 14), expressed from pTrcEtp (protein)
chain: MEVGFLGLGIMGKAMAVNLLRSGFRVTVWNRTLSKCNELLEQGASVGETPAAVIKKCKYTIAMLSDPSAALSVVFDKDGVLEHMSSGKGYIDMSTVDAVTSSKISEAITQKGGHFLEAPVSGSKKPAEDGQLVILAAGEKALYEEIIPAFEVLGKKSFFLGQVGNGANMKLIVNMIMGSMMNALSEGLSLAGKSGLEQKTLLDVLDLGAIANPMFKLKGPAMIQNNHPPAFPLKHQQKDMRLALALGDENAVSMPVAAAANEAFKKARSLGLGDLDFSAVYEVLKYGDAS
modifications: tulip pistil
In the case of B1, the “conversion of α-methylenesuccinatesemialdehyde” value in data set [1] is listed as “could convert”. In addition, in data set [2], the Michaelis-Menten constant (Km) (in general, the concentration of substrate that gives half-maximal velocity) came out at 3 mM and the kcat (commonly the maximal rate divided by the concentration of active sites) is 20 s⁻¹. In addition, in data set [3], the “activity with NADH as electron donator” value is “no activity” and the specific activity was 0.14 μmol/min^−1/mg^−1.

B2: GHBD2: γ-hydroxybutyrate dehydrogenase homolog from Arabidopsis (SEQ ID NO: 16), expressed from pTrcAds (protein)
chain: MEVGFLGLGIMGKAMSMNLLKNGFKVTVWNRTLSKCDELVEHGASVCESPAEVIKKCKYTIAMLSDPCAALSVVFDKGGVLEQICEGKGYIDMSTVDAETSLKINEAITGKGGRFVEGPVSGSKKPAEDGQLIILAAGDKALFEESIPAFDVLGKRSFYLGQVGNGAKMKLIVNMIMGSMMNAFSEGLVLADKSGLSSDTLLDILDLGAMTNPMFKGKGPSMNKSSYPPAFPLKHQQKDMRLALALGDENAVSMPVAAAANEAFKKARSLGLGDLDFSAVIEAVKFSRE
modifications: Arabidopsis
In the case of B2, in data set [1], the “conversion of α-methylenesuccinatesemialdehyde” value was “could convert”. Further, in data set [2], the Km was determined as 4 mM and the kcat came out at 21.5 s⁻¹. For the same molecule, in data set [3], the “activity with NADH as electron donator” value is “no activity” and the specific activity was 0.097 μmol/min^−1/mg^−1.
